Test results from IntAct's records for PubMed 31515488.

B1: Rho guanine nucleotide exchange factor 3 (Homo sapiens), Q9NR81 (parent)
chain: MVAKDYPFYLTVKRANCSLELPPASGPAKDAEEPSNKRVKPLSRVTSLANLIPPVKATPLKRFSQTLQRSISFRSESRPDILAPRPWSRNAAPSSTKRRDSKLWSETFDVCVNQMLTSKEIKRQEAIFELSQGEEDLIEDLKLAKKAYHDPMLKLSIMTEQELNQIFGTLDSLIPLHEELLSQLRDVRKPDGSTEHVGPILVGWLPCLSSYDSYCSNQVAAKALLDHKKQDHRVQDFLQRCLESPFSRKLDLWNFLDIPRSRLVKYPLLLREILRHTPNDNPDQQHLEEAINIIQGIVAEINTKTGESECRYYKERLLYLEEGQKDSLIDSSRVLCCHGELKNNRGVKLHVFLFQEVLVITRAVTHNEQLCYQLYRQPIPVKDLLLEDLQDGEVRLGGSLRGAFSNNERIKNFFRVSFKNGSQSQTHSLQANDTFNKQQWLNCIRQAKETVLCAAGQAGVLDSEGSFLNPTTGSRELQGETKLEQMDQSDSESDCSMDTSEVSLDCERMEQTDSSCGNSRHGESNV
partner: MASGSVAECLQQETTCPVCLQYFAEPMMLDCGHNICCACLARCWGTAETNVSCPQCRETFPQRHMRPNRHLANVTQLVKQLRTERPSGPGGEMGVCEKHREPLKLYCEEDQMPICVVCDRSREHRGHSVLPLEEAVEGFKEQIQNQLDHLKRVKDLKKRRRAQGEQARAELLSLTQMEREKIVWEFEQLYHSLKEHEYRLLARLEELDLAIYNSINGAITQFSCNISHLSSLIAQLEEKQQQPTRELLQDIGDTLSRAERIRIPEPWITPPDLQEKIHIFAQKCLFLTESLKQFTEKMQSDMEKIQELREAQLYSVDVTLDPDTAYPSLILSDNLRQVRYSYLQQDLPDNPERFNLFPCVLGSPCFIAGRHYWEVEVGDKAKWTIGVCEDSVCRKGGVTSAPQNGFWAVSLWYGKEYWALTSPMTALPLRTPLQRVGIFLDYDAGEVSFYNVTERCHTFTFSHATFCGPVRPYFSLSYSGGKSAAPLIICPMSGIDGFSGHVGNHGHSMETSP
B2: Coiled-coil domain-containing protein 33 (Homo sapiens), Q8N5R6-5 (parent)
chain: MGEPGPPSPPAPKAAPGLIDSFSEMNNYRRAMQKMAEDILSLRRQASILEGENRILRSRLAQQEEEEGQGKASEAQNTVSMKQKLLLSELDMKKLRDRVQHLQNELIRKNDREKELLLLYQAQQPQAALLKQYQGKLQKMKALEETVRHQEKVIEKMERVLEDRLQDRSKPPPLNRQQGKPYTGFPMLSASGLPLGSMGENLPVELYSVLLAENAKLRTELDKNRHQQAPIILQQQALPVDPGELGAGGDLTERLQETHGPGHSECTETLPAQDLLSGTSDKFNLLAKLEHAQSRILSLESQLEDSARRWGREKQDLATRLQEQEKGFRHPSNSIIIEQPVSDPPGVAPRGSGGGAGSHRTPKVTGP
partner: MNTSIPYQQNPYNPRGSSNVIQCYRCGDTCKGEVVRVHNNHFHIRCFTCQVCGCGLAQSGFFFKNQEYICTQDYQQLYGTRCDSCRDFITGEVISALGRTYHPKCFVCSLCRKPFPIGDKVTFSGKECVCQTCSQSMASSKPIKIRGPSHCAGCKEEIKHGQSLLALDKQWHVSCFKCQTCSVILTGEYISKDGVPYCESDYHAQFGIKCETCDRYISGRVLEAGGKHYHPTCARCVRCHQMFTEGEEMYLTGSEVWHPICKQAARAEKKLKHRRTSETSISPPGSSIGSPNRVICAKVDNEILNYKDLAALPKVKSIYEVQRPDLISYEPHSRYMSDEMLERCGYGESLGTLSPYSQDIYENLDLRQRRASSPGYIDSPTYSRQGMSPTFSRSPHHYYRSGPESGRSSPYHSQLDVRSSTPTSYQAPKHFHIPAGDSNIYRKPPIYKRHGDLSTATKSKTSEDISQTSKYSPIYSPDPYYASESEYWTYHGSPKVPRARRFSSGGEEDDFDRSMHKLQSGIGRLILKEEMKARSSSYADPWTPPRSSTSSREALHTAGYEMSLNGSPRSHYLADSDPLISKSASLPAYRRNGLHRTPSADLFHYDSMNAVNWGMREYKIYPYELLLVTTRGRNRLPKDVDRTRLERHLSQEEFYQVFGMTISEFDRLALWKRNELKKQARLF
B3: Kinesin-associated protein 3 (Homo sapiens), Q92845 (parent)
chain: MQGEDARYLKRKVKGGNIDVHPSEKALIVHYEVEATILGEMGDPMLGERKECQKIIRLKSLNANTDITSLARKVVEECKLIHPSKLNEVEQLLYYLQNRRDSLSGKEKKEKSSKPKDPPPFEGMEIDEVANINDMDEYIELLYEDIPDKVRGSALILQLARNPDNLEELLLNETALGALARVLREDWKQSVELATNIIYIFFCFSSFSQFHGLITHYKIGALCMNIIDHELKRHELWQEELSKKKKAVDEDPENQTLRKDYEKTFKKYQGLVVKQEQLLRVALYLLLNLAEDTRTELKMRNKNIVHMLVKALDRDNFELLILVVSFLKKLSIFMENKNDMVEMDIVEKLVKMIPCEHEDLLNITLRLLLNLSFDTGLRNKMVQVGLLPKLTALLGNDNYKQIAMCVLYHISMDDRFKSMFAYTDCIPQLMKMLFECSDERIDLELISFCINLAANKRNVQLICEGNGLKMLMKRALKFKDPLLMKMIRNISQHDGPTKNLFIDYVGDLAAQISNDEEEEFVIECLGTLANLTIPDLDWELVLKEYKLVPYLKDKLKPGAAEDDLVLEVVIMIGTVSMDDSCAALLAKSGIIPALIELLNAQQEDDEFVCQIIYVFYQMVFHQATRDVIIKETQAPAYLIDLMHDKNNEIRKVCDNTLDIIAEYDEEWAKKIQSEKFRWHNSQWLEMVESRQMDESEQYLYGDDRIEPYIHEGDILERPDLFYNSDGLIASEGAISPDFFNDYHLQNGDVVGQHSFPGSLGMDGFGQPVGILGRPATAYGFRPDEPYYYGYGS
partner: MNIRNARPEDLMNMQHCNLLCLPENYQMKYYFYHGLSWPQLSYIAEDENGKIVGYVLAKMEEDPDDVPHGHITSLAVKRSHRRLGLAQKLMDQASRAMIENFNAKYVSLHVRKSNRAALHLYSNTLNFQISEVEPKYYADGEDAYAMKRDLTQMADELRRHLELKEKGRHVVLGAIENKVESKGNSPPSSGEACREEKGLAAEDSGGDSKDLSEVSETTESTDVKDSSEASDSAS

Variants of: B1
Conditions: with tri27_human TRIM27, P14373

effect of a mutation on the interaction | Variant
with no effect | N432S

Variants of: B2
Conditions: with ablm3_human ABLIM3, O94929

effect of a mutation on the interaction | Variant
with no effect | G196R
disrupting interaction strength | P203L
with no effect | M25V
with no effect | R30L

Variants of: B3
Conditions: with naa10_human NAA10, P41227

effect of a mutation on the interaction | Variant
with no effect | F434C
